This data set can be described thus: label from the status in PepcDB records.
As to “MNGGKTAVIVLGWNGAADTLACLASLAKVRQPAFTVILADNGSTDGTVGLVRQAFPEVEILELGRNLGFAAGNNAAFRSLRGRGFDRVVFLNNDTVVDPGFLQPLLDELQKPWVGIAAPKILYMDDPGRIWYAGGVLESATGLIEHTGIRQPDGPRFDTPEPVWYATGCCLAMRCRVFEEVGGFDERFRMYGEDVDLSMKVRERGLIVMYQPASRIWHRVSASSGGEMNLGKQLRKSGAAMMLFAKHGMIGGLVLYPLLLPFRALLGLLRFQFFRWTSSQEREEA”, the protein production result is given as “failed”.

Regarding “RLPEVAHLLARVHNSELLHRMLRKVGGQSVRPQDFIQQYLQDLPDDLRHHPLMARVLDELRGTAPTLPATDYRVCHGDLNHKNWLLSDRQQLYLVDWDSARFADPASDISMLLCEYVPLSDWQQWLSEYGETMTTALRTRVVWYAKINLLLNIKDNYYRNQYHQMNHEIIFLEELSQYEV”, the protein production entry is given as “failed”.

For the sequence “MRILIASQPIAGHVLPLREIARELARRGHELRWYTGRKFRPQVEAAGAVWEGFVHARDYDDANFDAAFPGRSARRGLAQLLFDLRHVFVGQMEGQFYDLRDLERRWRPDVVLADQTVGAALLREELGGPPVALLGVLPLGIASRDTAPFGLGLAPLGGAAGQLRNRALQVLTERVVFRGISAQLADLCTWLGLPARSFAPPVAPSLMLQPSVPRLEYLRRDLPPQVRFIGPLVLPAGEFTPPAWWNDILTAERPVVLVTQGTLATRPEQLLRPALAALADEDVLVVAAGVAPERLGPLPANARAAAFVPFTALLPHVAVSLTNGGYGGTVQALSHGVPCVVAGRSEDKAEVAARVAYSGAGLNLGTATPSPARIRAAVRRVLREPAFREQAGELGHELRQHDAPREAADWLETLGGKKLEHHHHHH”, the protein production result was “failed”.

Turning to “MSNSMLDKNKAILTGGGALLLGLIVLFYLAYRPKAEVLQGFLEAREYSVSSKVPGRIEKVFVKKGDHIKKGDLVFSISSPELEAKLAQAEAGHKAAKALSDEVKRGSRDETINSARDVWQAAKSQATLAKETYKRVQDLYDNGVASLQKRDEAYAAYESTKYNESAAYQKYKMALGGASSESKIAAKAKESAALGQVNEVESYLKDVKATAPIDGEVSNVLLSGGELSPKGFPVVLMIDLKDSWLKISVPEKYLNEFKVGKEFEGYIPALKKSTKFRVKYLSVMGDFATWKATNNSNTYDMKSYEVEAIPLEELENFRVGMSVLVTIKP”, the protein production result is reported as “failed”.

On to “MKFYIDDLPVLFPYPKIYPEQYNYMCDIKKTLDVGGNSILEMPSGTGKTVSLLSLTIAYQMHYPEHRKIIYCSRTMSEIEKALVELENLMDYRTKELGYQEDFRGLGLTSRKNLCLHPEVSKERKGTVVDEKCRRMTNGQAKRKLEEDPEANVELCEYHENLYNIEVEDYLPKGVFSFEKLLKYCEEKTLCPYFIVRRMISLCNIIIYSYHYLLDPKIAERVSNEVSKDSIVIFDEAHNIDNVCIESLSLDLTTDALRRATRGANALDERISEVRKVDSQKLQDEYEKLVQGLHSADILTDQEEPFVETPVLPQDLLTEAIPGNIRRAEHFVSFLKRLIEYLKTRMKVLHVISETPKSFLQHLKQLTFIERKPLRFCSERLSLLVRTLEVTEVEDFTALKDIATFATLISTYEEGFLLIIEPYEIENAAVPNPIMRFTCLDASIAIKPVFERFSSVIITSGTISPLDMYPRMLNFKTVLQKSYAMTLAKKSFLPMIITKGSDQVAISSRFEIRNDPSIVRNYGSMLVEFAKITPDGMVVFFPSYLYMESIVSMWQTMGILDEVWKHKLILVETPDAQETSLALETYRKACSNGRGAILLSVARGKVSEGIDFDHQYGRTVLMIGIPFQYTESRILKARLEFMRENYRIRENDFLSFDAMRHAAQCLGRVLRGKDDYGVMVLADRRFSRKRSQLPKWIAQGLSDADLNLSTDMAISNTKQFLRTMAQPTDPKDQEGVSVWSYEDLIKHQNSRKDQGGFIENENKEGEQDEDEDEDIEMQ”, for which the protein production result is given as “failed”.

“MRYRNTALFVLLAAVWGSAFVAIKAGVGSPDAPGYFFDAPVLFAAVRYDIAAVLMFAYVAWATDRWRPRGRTEWLAVAVGSAFIIAGYHALLFLGQRGTTSAAAAVIVSLSPVLTTAFARALLADERLSVLGLAGMGVGFLGVVVLSQPTPADIAASRFEALVFAAALCFALGSVLTRRLDTDLPIETMEAWSMAGGALLMHALSLALGETVSGAPPTDALVALGYLAVVASAAGFLVYFDLLGRLGAIEINLVSYVVPVFAALVGVLLLGERVDTPTAAGFLLVFAGFVIIKRRAIRAEIADSYWP”: the protein production entry is listed as “failed”.

On to “MDTTFGLDLARVETLFKRELRRFDELHPRSAQAYRENRRHWLYGAPLHWMQQWPGNCPLLVKEAQGARVTDIDGQQYVDFALGDSGAMFGHAQPAVADAIARQARRGSTLMLPTEDSLWVGAELARRFGLPYWQVTTSATDANRFVLRLCRMLSGRDKVVVFNCNYHGSVDESQVEFDAAGRMVPRAGVHPNGVRHATTTRLVEFNDLDALEAALAHGDVAAVLTEPFMTNVGMVPPAEGFHAGLRELTRRHDVALIIDETHTISCGPAGYSGAHGLEPDFFVLGKCIAGGIPSAVWGCSQAQAERIWAVLPHFRPGQAINHFGFGGTLAGNALQLAAMRATFAEVMTEDAYRHMFQLAAQLEAGVRATLEELRLPWHVTRIGARVEYLFMTHAPRNGGEAHHARNGLIEACLHLYLLNRGVLLTPFHNMALTCPATRAEDVELHDRLLRDCLGELLERPS”, for which the protein production entry was “failed”.

Consider “MYSALLNADIRIYGYLRASTDEQDASRAKNELMLFAEQMGFQVACWFEENESGAQLKRPELFRLLDIAISGDVILVEQVDRISRLNTQDWEKLKLMINKKGLKVVSLDLPTSYQFMSNTDDFTERMLSALNGMMLDMLAAVARKDYEDRRRRQAQGVQRAKLEGKYKGRPINTKLHNKIEGLLRENKSYSQIENLLGCSRHTISKVSKLIKSSIG”, for which the protein production result is listed as “failed”.

Consider “MQMSEKFKQIRARLRLPVLVAPMLRISGPALVAASCSNGVIGSFPTVNARTPDQLDRWIDEIKQAVSAAGAYDAPYCANILARSDPDKLQADLKILIKHKVEIVLVSTGAPEKYVKPLQDIGCFVIADVASIRHARKALQQGVDGLALLTAGAGGQTGWANGFAFVRAIRDFYDGPLLLAGGVSDGQALWAARTLGCDLGLMGTRFIGTQECDASDGYKAMLVDSSIDDVVLTRGISGIDANFLRPSIIACGLDPQELVAPVSPERAREMFSSYADGMRGPKRWVDLWSAGHTVSGVKVVQSVSEVVDQLAVEYTRAQRATRAPLADADDPAI”, for which the protein production entry is “failed”.

“MNHDIDIKKVRLNCFRQSKVPGEFMLQMRIPGGIVDAKYLSQIQEIAETWGNGTFHMGMRQTFNIPGIKYENIQAVNKFIENYLQEVEVDRCNCDMKVDENGYPTIGARNVMACIGNSHCIKANVDTKDMANKIEKLVFPSHYHIKVSVAGCPNDCAKGHFQDFGVIGQARMEYHEERCIGCGACVRACEHHATRVLSLNDKGLVDKDPCCCVGCGECVLACPASAWTRKPEKFYRIVIGGRTGKQTPRMGKTFINFATEEVVLGIFANWQKFSAWALDYKPEYLHGGHLIDRAGYHKFKEIILDGVELNPEALVADNIFWAETEYRSNFNVKPIKMHKTIESNRPLRLEHHHHHH”: the protein production result is listed as “failed”.

As to “MTRPQAAAEDARNAMVAGLLASGISVNGLQPSHNPQVAAQMFTTATRLDPKMCDAWLARLLAGDQSIEVLAGAWAAVRTFGWETRRLGVTDLQFRPEVSDGLFLRLAITSVDSLACAYAAVLAEAKRYQEAAELLDATDPRHPFDAELVSYVRGVLYFRTKRWPDVLAQFPEATQWRHPELKAAGAAMATTALASLGVFEEAFRRAQEAIEGDRVPGAANIALYTQGMCLRHVGREEEAVELLRRVYSRDAKFTPAREALDNPNFRLILTDPETIEARTDPWDPDSAPTRAQTEAARHAEMAAKYLAEGDAELNAMLGMEQAKKEIKLIKSTTKVNLARAKMGLPVPVTSRHTLLLGPPGTGKTSVARAFTKQLCGLTVLRKPLVVETSRTKLLGRYMADAEKNTEEMLEGALGGAVFFDEMHTLHEKGYSQGDPYGNAIINTLLLYMENHRDELVVFGAGYAKAMEKMLEVNQGLRRRFSTVIEFFSYTPQELIALTQLMGRENEDVITEEESQVLLPSYTKFYMEQSYSEDGDLIRGIDLLGNAGFVRNVVEKARDHRSFRLDDEDLDAVLASDLTEFSEDQLRRFKELTREDLAEGLRAAVAEKKTK”, the protein production entry was “failed”.

On to “MQVEQRTLNTAAHPFQITAYWLDQISDFETAVDYPIMIICPGGGFTYHSGREEAPIATRMMAAGMHTVVLNYQLIVGDQSVYPWALQQLGATIDWITTQASAHHVDCQRIILAGFSAGGHVVATYNGVATQPELRTRYHLDHYQGQHAAIILGYPVIDLTAGFPTTSAARNQITTDARLWAAQRLVTPASKPAFVWQTATDESVPPINSLKYVQAMLQHQVATAYHLFGSGIHGLALANHVTQKPGKDKYLNDQAAIWPQLALRWLQEQGLLAGNYLEHHHHHH”, for which the protein production result was “not failed”.

“MTLGLKDLYYAVCTEADGAESYGTPKKMAEAMSADLSVKTADGSLYADDTLSESVTEFASGTLKLGIKDLTPEVLAELLGQAVDKNSVVWAGKEDEPPYVAVGFRAKKTGGKYRYVWLLKAKFKVPSEKYETKGESIKFNTPDIEASFTTRKKDNLWKADFVGTEESAAAKTWFTAVPEKAAAMESVLEHHHHHH”: the protein production result was “not failed”.

As to “MASSTRSTRSTPARGKSKGASGNVTPWLWMAFALLVVMIDQFFKVVITRSFQYGESRPITSFFNLVLVYNKGAAFSFLADAGGWQRWFFTLLGVVVGAFIIWLLYRHTGQKLFCLAVSLILGGAVGNVVDRIIHGHVIDFLDFHLRNTHFPAFNVADCAITLGAILLIVDELRRVRRH”, the protein production result was “failed”.

As to “LTVHYDLQLYKINYKTQSPDGNLTIASGLVAMPIHPVGQVGIISYQHGTRFERNDVPSRNNEKNYIYLAAYGNSAGYMTVMPDYLGLGDNELTLHPYVQAETLASSSIDMLFAAKELANRLHYPISDKLYLAGYSEGGFSTIVMFEMLAKEYPDLPVSAVAPGSAPYGWEETMHFVMLEPGPRATAYLAYFFYSLQTYKSYWSGFDEIFAPPYNTLIPELMDGYHAVDEILQALPQDPLLIFQPKFSNGIISKTDRNTEILKINFNHYDFKPTAPLLLVGTKGDRDVPYAGAEMAYHSFRKYSDFVWIKSVSDALDHVQAHPFVLKEQVDFFKQFERQE”, the protein production result is recorded as “not failed”.

As for “MDISLLKQVVQSTNKIALSTAVNNEADVKIVNFVWYEAQPDTLYFSSVKTSPALKVYDQNPDIAFITIPNDGTAGNPYLRAQHVKLQRSTKTMTDLLPQYLETVPNYQQVWDAIGSTLVVFELKLTDLFVDAGVGGEKQTLTFN”, the protein production entry was “not failed”.

For the sequence “MKLAYWMYAGPAHIGTLRISSSFRNVHAIMHAPLGDDYFNVMRSMLERERNFTPVTTSVVDRNVLARGSQEKVIDNILRKDTEERPDLIVLTPTCTSSILQEDLQNFVERAKESAQCDVLLADVNHYRVNELQAADRTLEQIVRFYLDRAQRQGTLPSQRTEQPSVNILGMTTLGFHNRHDTTELQRLMADLGITVNAVIPAGASVEELQHLPRAWFNLVPYREVGLLTAQYLQDTFDQPMVAIAPMGITATADCIRQIQQVLNQQGAAVDFEPFIDRQTRFASEAAWFSHSIDCQNLTGKRAVVFGDNTHAAAFTKILSREMGIHVVLAGTYCKHDADWFEAEVAGYCDRVLISDDHNAIADAIAELEPAAIFGTQMERHVGKRLNIPCGVIAAPVHIQNFPVGYRPFVGYEGANQIVDLVYNSFTLGMEDHLLEIFGGHDTKEVLTKTVSAGSDLDWKPDGLTELNRIPGFVRGKVKRNTEKYAREQGLTAITAEVLYAAKEALGALEHHHHHH”, the protein production result is reported as “not failed”.

Consider “MLTVTFTVSNTGDRAGAAVPQVYPGFPNTTIDRCVRELKAFRRVELEPGQRQTVTVALTRRDLSYWDILPHPLRSYAVGSILEHHHHHH”, for which the protein production result is given as “failed”.

The values above are taken from a protein production outcome set (Wang et al. 2014).
